B1: 20E6_H0.2aL1_hIgG1 VH_R50A (antibody, V domains shown)
VH: EVQLVQSGAEVKKPGASVKVSCKASGYTFTSYWMHWVRQAPGQGLEWMGAIDPQSGGIKYAQKFQGRATLTVDTSTSTAYMELSRLRSDDTAVYYCARWDYGGYFDVWGQGTLVTVSS
VL: DIQMTQSPSSLSASVGDRVTITCRASQDITNYLNWYQQKPGKAVKLLIYYTSRLHSGVPSRFSGSGSGTDYTLTISSLQPEDFATYFCQQGDTLPWTFGQGTKLEIKR
B2: 20E6_H0.2aL1_hIgG1 VL_D28A (antibody, V domains shown)
VH: EVQLVQSGAEVKKPGASVKVSCKASGYTFTSYWMHWVRQAPGQGLEWMGRIDPQSGGIKYAQKFQGRATLTVDTSTSTAYMELSRLRSDDTAVYYCARWDYGGYFDVWGQGTLVTVSS
VL: DIQMTQSPSSLSASVGDRVTITCRASQAITNYLNWYQQKPGKAVKLLIYYTSRLHSGVPSRFSGSGSGTDYTLTISSLQPEDFATYFCQQGDTLPWTFGQGTKLEIKR
B3: 20E6_H0.2aL1_hIgG1 VL_G91A (antibody, V domains shown)
VH: EVQLVQSGAEVKKPGASVKVSCKASGYTFTSYWMHWVRQAPGQGLEWMGRIDPQSGGIKYAQKFQGRATLTVDTSTSTAYMELSRLRSDDTAVYYCARWDYGGYFDVWGQGTLVTVSS
VL: DIQMTQSPSSLSASVGDRVTITCRASQDITNYLNWYQQKPGKAVKLLIYYTSRLHSGVPSRFSGSGSGTDYTLTISSLQPEDFATYFCQQADTLPWTFGQGTKLEIKR
B4: 20E6_H0.2aL1_hIgG1 VH_F105A (antibody, V domains shown)
VH: EVQLVQSGAEVKKPGASVKVSCKASGYTFTSYWMHWVRQAPGQGLEWMGRIDPQSGGIKYAQKFQGRATLTVDTSTSTAYMELSRLRSDDTAVYYCARWDYGGYADVWGQGTLVTVSS
VL: DIQMTQSPSSLSASVGDRVTITCRASQDITNYLNWYQQKPGKAVKLLIYYTSRLHSGVPSRFSGSGSGTDYTLTISSLQPEDFATYFCQQGDTLPWTFGQGTKLEIKR
B5: 20E6_H0.2aL1_hIgG1 VL_L94A (antibody, V domains shown)
VH: EVQLVQSGAEVKKPGASVKVSCKASGYTFTSYWMHWVRQAPGQGLEWMGRIDPQSGGIKYAQKFQGRATLTVDTSTSTAYMELSRLRSDDTAVYYCARWDYGGYFDVWGQGTLVTVSS
VL: DIQMTQSPSSLSASVGDRVTITCRASQDITNYLNWYQQKPGKAVKLLIYYTSRLHSGVPSRFSGSGSGTDYTLTISSLQPEDFATYFCQQGDTAPWTFGQGTKLEIKR
B6: 20E6_H0.2aL1_hIgG1 VL_N34A (antibody, V domains shown)
VH: EVQLVQSGAEVKKPGASVKVSCKASGYTFTSYWMHWVRQAPGQGLEWMGRIDPQSGGIKYAQKFQGRATLTVDTSTSTAYMELSRLRSDDTAVYYCARWDYGGYFDVWGQGTLVTVSS
VL: DIQMTQSPSSLSASVGDRVTITCRASQDITNYLAWYQQKPGKAVKLLIYYTSRLHSGVPSRFSGSGSGTDYTLTISSLQPEDFATYFCQQGDTLPWTFGQGTKLEIKR
B7: 20E6_H0.2aL1_hIgG1 VL_Y50A (antibody, V domains shown)
VH: EVQLVQSGAEVKKPGASVKVSCKASGYTFTSYWMHWVRQAPGQGLEWMGRIDPQSGGIKYAQKFQGRATLTVDTSTSTAYMELSRLRSDDTAVYYCARWDYGGYFDVWGQGTLVTVSS
VL: DIQMTQSPSSLSASVGDRVTITCRASQDITNYLNWYQQKPGKAVKLLIYATSRLHSGVPSRFSGSGSGTDYTLTISSLQPEDFATYFCQQGDTLPWTFGQGTKLEIKR
B8: 20E6_H0.2aL1_hIgG1 VL_A25G (antibody, V domains shown)
VH: EVQLVQSGAEVKKPGASVKVSCKASGYTFTSYWMHWVRQAPGQGLEWMGRIDPQSGGIKYAQKFQGRATLTVDTSTSTAYMELSRLRSDDTAVYYCARWDYGGYFDVWGQGTLVTVSS
VL: DIQMTQSPSSLSASVGDRVTITCRGSQDITNYLNWYQQKPGKAVKLLIYYTSRLHSGVPSRFSGSGSGTDYTLTISSLQPEDFATYFCQQGDTLPWTFGQGTKLEIKR
B9: 20E6_H0.2aL1_hIgG1 VH_Y104A (antibody, V domains shown)
VH: EVQLVQSGAEVKKPGASVKVSCKASGYTFTSYWMHWVRQAPGQGLEWMGRIDPQSGGIKYAQKFQGRATLTVDTSTSTAYMELSRLRSDDTAVYYCARWDYGGAFDVWGQGTLVTVSS
VL: DIQMTQSPSSLSASVGDRVTITCRASQDITNYLNWYQQKPGKAVKLLIYYTSRLHSGVPSRFSGSGSGTDYTLTISSLQPEDFATYFCQQGDTLPWTFGQGTKLEIKR
B10: 20E6_H0.2aL1_hIgG1 VL_P95A (antibody, V domains shown)
VH: EVQLVQSGAEVKKPGASVKVSCKASGYTFTSYWMHWVRQAPGQGLEWMGRIDPQSGGIKYAQKFQGRATLTVDTSTSTAYMELSRLRSDDTAVYYCARWDYGGYFDVWGQGTLVTVSS
VL: DIQMTQSPSSLSASVGDRVTITCRASQDITNYLNWYQQKPGKAVKLLIYYTSRLHSGVPSRFSGSGSGTDYTLTISSLQPEDFATYFCQQGDTLAWTFGQGTKLEIKR
B11: 20E6_H0.2aL1_hIgG1 VH_G102A (antibody, V domains shown)
VH: EVQLVQSGAEVKKPGASVKVSCKASGYTFTSYWMHWVRQAPGQGLEWMGRIDPQSGGIKYAQKFQGRATLTVDTSTSTAYMELSRLRSDDTAVYYCARWDYAGYFDVWGQGTLVTVSS
VL: DIQMTQSPSSLSASVGDRVTITCRASQDITNYLNWYQQKPGKAVKLLIYYTSRLHSGVPSRFSGSGSGTDYTLTISSLQPEDFATYFCQQGDTLPWTFGQGTKLEIKR
B12: 20E6_H0.2aL1_hIgG1 VH_Y101A (antibody, V domains shown)
VH: EVQLVQSGAEVKKPGASVKVSCKASGYTFTSYWMHWVRQAPGQGLEWMGRIDPQSGGIKYAQKFQGRATLTVDTSTSTAYMELSRLRSDDTAVYYCARWDAGGYFDVWGQGTLVTVSS
VL: DIQMTQSPSSLSASVGDRVTITCRASQDITNYLNWYQQKPGKAVKLLIYYTSRLHSGVPSRFSGSGSGTDYTLTISSLQPEDFATYFCQQGDTLPWTFGQGTKLEIKR
B13: 20E6_H0.2aL1_hIgG1 VL_W96A (antibody, V domains shown)
VH: EVQLVQSGAEVKKPGASVKVSCKASGYTFTSYWMHWVRQAPGQGLEWMGRIDPQSGGIKYAQKFQGRATLTVDTSTSTAYMELSRLRSDDTAVYYCARWDYGGYFDVWGQGTLVTVSS
VL: DIQMTQSPSSLSASVGDRVTITCRASQDITNYLNWYQQKPGKAVKLLIYYTSRLHSGVPSRFSGSGSGTDYTLTISSLQPEDFATYFCQQGDTLPATFGQGTKLEIKR
B14: 20E6_H0.2aL1_hIgG1 VL_L33A (antibody, V domains shown)
VH: EVQLVQSGAEVKKPGASVKVSCKASGYTFTSYWMHWVRQAPGQGLEWMGRIDPQSGGIKYAQKFQGRATLTVDTSTSTAYMELSRLRSDDTAVYYCARWDYGGYFDVWGQGTLVTVSS
VL: DIQMTQSPSSLSASVGDRVTITCRASQDITNYANWYQQKPGKAVKLLIYYTSRLHSGVPSRFSGSGSGTDYTLTISSLQPEDFATYFCQQGDTLPWTFGQGTKLEIKR
B15: 20E6_H0.2aL1_hIgG1 VL_T97A (antibody, V domains shown)
VH: EVQLVQSGAEVKKPGASVKVSCKASGYTFTSYWMHWVRQAPGQGLEWMGRIDPQSGGIKYAQKFQGRATLTVDTSTSTAYMELSRLRSDDTAVYYCARWDYGGYFDVWGQGTLVTVSS
VL: DIQMTQSPSSLSASVGDRVTITCRASQDITNYLNWYQQKPGKAVKLLIYYTSRLHSGVPSRFSGSGSGTDYTLTISSLQPEDFATYFCQQGDTLPWAFGQGTKLEIKR
B16: 20E6_H0.2aL1_hIgG1 VL_Y32A (antibody, V domains shown)
VH: EVQLVQSGAEVKKPGASVKVSCKASGYTFTSYWMHWVRQAPGQGLEWMGRIDPQSGGIKYAQKFQGRATLTVDTSTSTAYMELSRLRSDDTAVYYCARWDYGGYFDVWGQGTLVTVSS
VL: DIQMTQSPSSLSASVGDRVTITCRASQDITNALNWYQQKPGKAVKLLIYYTSRLHSGVPSRFSGSGSGTDYTLTISSLQPEDFATYFCQQGDTLPWTFGQGTKLEIKR
B17: 20E6_H0.2aL1_hIgG1 VH_G103A (antibody, V domains shown)
VH: EVQLVQSGAEVKKPGASVKVSCKASGYTFTSYWMHWVRQAPGQGLEWMGRIDPQSGGIKYAQKFQGRATLTVDTSTSTAYMELSRLRSDDTAVYYCARWDYGAYFDVWGQGTLVTVSS
VL: DIQMTQSPSSLSASVGDRVTITCRASQDITNYLNWYQQKPGKAVKLLIYYTSRLHSGVPSRFSGSGSGTDYTLTISSLQPEDFATYFCQQGDTLPWTFGQGTKLEIKR
B18: 20E6_H0.2aL1_hIgG1 VH_W99A (antibody, V domains shown)
VH: EVQLVQSGAEVKKPGASVKVSCKASGYTFTSYWMHWVRQAPGQGLEWMGRIDPQSGGIKYAQKFQGRATLTVDTSTSTAYMELSRLRSDDTAVYYCARADYGGYFDVWGQGTLVTVSS
VL: DIQMTQSPSSLSASVGDRVTITCRASQDITNYLNWYQQKPGKAVKLLIYYTSRLHSGVPSRFSGSGSGTDYTLTISSLQPEDFATYFCQQGDTLPWTFGQGTKLEIKR
B19: 20E6_H0.2aL1_hIgG1 VL_D92A (antibody, V domains shown)
VH: EVQLVQSGAEVKKPGASVKVSCKASGYTFTSYWMHWVRQAPGQGLEWMGRIDPQSGGIKYAQKFQGRATLTVDTSTSTAYMELSRLRSDDTAVYYCARWDYGGYFDVWGQGTLVTVSS
VL: DIQMTQSPSSLSASVGDRVTITCRASQDITNYLNWYQQKPGKAVKLLIYYTSRLHSGVPSRFSGSGSGTDYTLTISSLQPEDFATYFCQQGATLPWTFGQGTKLEIKR
B20: 20E6_H0.2aL1_hIgG1 VL_Q27A (antibody, V domains shown)
VH: EVQLVQSGAEVKKPGASVKVSCKASGYTFTSYWMHWVRQAPGQGLEWMGRIDPQSGGIKYAQKFQGRATLTVDTSTSTAYMELSRLRSDDTAVYYCARWDYGGYFDVWGQGTLVTVSS
VL: DIQMTQSPSSLSASVGDRVTITCRASADITNYLNWYQQKPGKAVKLLIYYTSRLHSGVPSRFSGSGSGTDYTLTISSLQPEDFATYFCQQGDTLPWTFGQGTKLEIKR
B21: 20E6_H0.2aL1_hIgG1 VL_Q90A (antibody, V domains shown)
VH: EVQLVQSGAEVKKPGASVKVSCKASGYTFTSYWMHWVRQAPGQGLEWMGRIDPQSGGIKYAQKFQGRATLTVDTSTSTAYMELSRLRSDDTAVYYCARWDYGGYFDVWGQGTLVTVSS
VL: DIQMTQSPSSLSASVGDRVTITCRASQDITNYLNWYQQKPGKAVKLLIYYTSRLHSGVPSRFSGSGSGTDYTLTISSLQPEDFATYFCQAGDTLPWTFGQGTKLEIKR

21 molecules from patent publication US20220017612A1 can be followed below.

In the test the target is biotinylated human LAP-TGFβ1 (Example 14) (human) (UniProt P01137). Kind of test: BLI, antigen on tip, CHO supernatant; ratio to wild type.
Sequence of biotinylated human LAP-TGFβ1 (Example 14) (human) (P01137 30-390 limits assumed): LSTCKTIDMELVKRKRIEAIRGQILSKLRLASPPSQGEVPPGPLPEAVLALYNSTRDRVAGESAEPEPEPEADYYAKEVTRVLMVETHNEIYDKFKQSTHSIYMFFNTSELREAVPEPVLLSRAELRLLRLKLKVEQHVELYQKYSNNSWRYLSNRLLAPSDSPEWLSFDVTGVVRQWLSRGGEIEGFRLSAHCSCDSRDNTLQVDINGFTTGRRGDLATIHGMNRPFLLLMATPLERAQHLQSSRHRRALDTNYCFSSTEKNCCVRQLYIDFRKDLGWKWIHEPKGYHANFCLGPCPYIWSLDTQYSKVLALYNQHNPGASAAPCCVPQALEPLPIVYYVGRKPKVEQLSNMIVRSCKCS
B1: the KD,WT/KD,Ala turned out to be 0.

Consider B2, for which the KD,WT/KD,Ala was found to be 0.

Regarding B3, the KD,WT/KD,Ala stood at 0.

Consider B4, for which the KD,WT/KD,Ala was found to be 0.

Consider B5, for which the KD,WT/KD,Ala came to 0.

As for B6, the KD,WT/KD,Ala is 0.07.

Consider B7, for which the KD,WT/KD,Ala turned out to be 0.

In the case of B8, the KD,WT/KD,Ala stood at 0.09.

Take B9: the KD,WT/KD,Ala is 0.

Turning to B10, the KD,WT/KD,Ala came out at 0.

With B11, the KD,WT/KD,Ala stood at 0.

Consider B12, for which the KD,WT/KD,Ala was 0.

B13: the KD,WT/KD,Ala stood at 0.

For the molecule B14, the KD,WT/KD,Ala is 0.08.

For B15, the KD,WT/KD,Ala worked out at 0.01.

For the molecule B16, the KD,WT/KD,Ala came to 0.

Turning to B17, the KD,WT/KD,Ala amounted to 0.

In the case of B18, the KD,WT/KD,Ala was 0.

On to B19, for which the KD,WT/KD,Ala amounted to 0.

B20: the KD,WT/KD,Ala turned out to be 0.03.

For the molecule B21, the KD,WT/KD,Ala was found to be 0.
